Results reported in patent CN114874324A (dated 2022).

What was measured:
[1] = biological target: T1, 可溶性LAG-3蛋白标准品(R&D Systems) (human, UniProt P18627 23-450, limits assumed); test: sandwich ELISA of the kit (4F4 and 4E12 as the antibody pair)
T1 construct: also called sLAG-3蛋白; sLAG-3
T1 sequence (looked up): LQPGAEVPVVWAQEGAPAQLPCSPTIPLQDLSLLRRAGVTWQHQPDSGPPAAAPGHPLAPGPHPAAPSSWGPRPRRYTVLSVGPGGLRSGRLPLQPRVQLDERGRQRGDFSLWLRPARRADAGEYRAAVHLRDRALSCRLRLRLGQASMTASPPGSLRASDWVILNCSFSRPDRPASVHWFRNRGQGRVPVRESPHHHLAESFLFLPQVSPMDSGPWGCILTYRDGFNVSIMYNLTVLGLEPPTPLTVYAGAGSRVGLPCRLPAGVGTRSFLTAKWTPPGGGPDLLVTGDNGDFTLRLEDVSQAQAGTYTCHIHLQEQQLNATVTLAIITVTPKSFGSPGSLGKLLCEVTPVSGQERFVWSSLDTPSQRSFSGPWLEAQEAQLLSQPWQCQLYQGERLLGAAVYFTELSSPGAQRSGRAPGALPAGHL

[2] = biological target: T1, 可溶性LAG-3蛋白标准品(R&D Systems); test: sandwich ELISA, wells pre-coated with 4E12

B1: LAG-3-4F4抗体 (antibody, V domains shown)
VH: QLQLKESGPEVVRPGVSVKISCKGSGYTFTDYAMYWVKQSHAKSLEWIGVISTYNGNTNYNQRFKGKATMTVDKSSSTAYMELARLTSEDSAIYYCARERGAMDYWGQGTSVTVSS
VL: DVLMTQTPLSLPVSLGDQASISCRSSQSIVHNNGNTYLEWYLQKPGQSPKLLIYKVSSRFSGVPDRFSGSGSGTDFTLKISRVEAEDLGIYYCFQGSHVPPTFGGGTKLEIK
notes: Mouse (BALB/c) hybridoma monoclonal antibody; also called 抗人LAG-3-4F4单克隆抗体; LAG-3包被抗体
- binding result [1]: binds

B2: LAG-3-4E12抗体 (antibody, V domains shown)
VH: EVKLVESGGGLVQPGGSLKLSCAVSGFAIRSYDMSWVRQTPEKRLEWVATISSGGSYSYYPDSVKGRFTISRDNARNTLYLQMSSLRSEDTALYYCASLSTAPAYWGQGTLVTVSA
VL: DIVMTQSQKFMSTSVGDRVSVTCKASQNVGTNVAWYQQKPGQSPKALIYSASYRYSGVPDRFTGSGSGTDFTLTISNVQSEDLAEYFCQQYNTYPHMYTFGGGTKLEIK
notes: Mouse (BALB/c) hybridoma monoclonal antibody; also called LAG-3-4E12单克隆抗体; 抗LAG-3单抗(克隆:4E12)
- binding result [2]: binds
